According to publication PMC7689490 (Nature Communications, 2020):
[ ]: non-standard residue; d: D form. Fluos = fluorescein label; Ahx = NCCCCCC(=O)O

Biological target: T1, macrophage migration-inhibitory factor (MIF), recombinant human, unlabelled (human, UniProt P14174 1-115)
T1 construct: human MIF; For some biophysical methods a 90-95% pure preparation was used; also called WT-MIF; human MIF
T1 sequence (looked up): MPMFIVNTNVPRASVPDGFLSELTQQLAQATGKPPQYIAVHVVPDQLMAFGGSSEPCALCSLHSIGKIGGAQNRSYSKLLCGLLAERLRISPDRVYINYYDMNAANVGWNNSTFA
Assay: other fluorescence titration; Fluos-labelled CXCR4 ectodomain peptide at 5 nM titrated with unlabelled MIF, MIF(10xAla), CXCL12 or MIF peptide fragments; 10 mM sodium phosphate, pH 7.4, 1% HFIP; emission at 522 nm; apparent KD, 1/1 binding model
Conditions: both partners purified

- Kd: > 1000 nM
B1: Fluos-[A^102, A^103, A^104, A^107, A^189, A^190, A^195]-msR4M-L1 (designed binder)
chain: Fluos-DAVANAAAGNALCK[Ahx][Ado]DRYICDRAAPNDLAV-NH2
modifications: cysteine pairing not given here
notes: The functional assays used the unlabelled peptide; also called Fluos-msR4M-L1(7xAla); source: synthetic peptide (Fmoc SPPS on Rink amide MBHA resin, RP-HPLC purified)
